Tested on: Jurkat cells
Assay: Tacrolimus dose response of FKBP13-AcGFP-mCherry constructs stably transduced into Jurkat cells, GFP MFI by flow cytometry
Assay type: cell-based
Settings: tacrolimus; for Fold Change: Jurkat cells, Table 13
How it was run: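 GFP geometric MFI was read by flow cytometry in mCherry+ cells and curve-fitted against tacrolimus dose. Cells were Jurkat E6-1, lentivirus-transduced with FKBP13-AcGFP-mCherry fusion constructs until 10-25% mCherry-positive on day 5 post-transduction.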

Molecule	FC (FIGS. 33 and 34)	Fold Change	FC (FIG. 35)	Peak (FIG. 35)	FC (FIG. 36)	Peak (FIG. 36)
FKBP-275: FKBP13 DRD-AcGFP construct of Table 10 (protein, Description of sequence: Construct Name: FKBP-275; Mutation(s): Q72R Q84E A117W V85R DRD G49D) HCPIKSRKDDVLHMHYTGKLEDGTEFDSSLPRNQPFVFSLGTGERIKGWDQGLLGMCEGEKRKLVIPSELGYGERGWPPKIPGGATLVFEVELLKIER	56	56	–	–	–	–
FKBP-278: FKBP13 DRD-AcGFP construct of Table 10 (protein, Description of sequence: Construct Name: FKBP-278; Mutation(s): Q72R Q74R Q84E A117W V85R E130F) HCPIKSRKGDVLHMHYTGKLEDGTEFDSSLPRNRPFVFSLGTGERIKGWDQGLLGMCEGEKRKLVIPSELGYGERGWPPKIPGGATLVFFVELLKIER	–	92.73	92.73	3425	–	–
FKBP-277: FKBP13 DRD-AcGFP construct of Table 10 (protein, Description of sequence: Construct Name: FKBP-277; Mutation(s): Q72R Q74R Q84E A117W V85R K135Y) HCPIKSRKGDVLHMHYTGKLEDGTEFDSSLPRNRPFVFSLGTGERIKGWDQGLLGMCEGEKRKLVIPSELGYGERGWPPKIPGGATLVFEVELLYIER	–	61.04	61.04	2581	–	–
FKBP-281: FKBP13 DRD-AcGFP construct of Table 10 (protein, Description of sequence: Construct Name: FKBP-281; Mutation(s): Q72R Q74R Q84E A117W V85R E130F K120I) HCPIKSRKGDVLHMHYTGKLEDGTEFDSSLPRNRPFVFSLGTGERIKGWDQGLLGMCEGEKRKLVIPSELGYGERGWPPIIPGGATLVFFVELLKIER	–	77.66	–	–	77.66	2905
FKBP-279: FKBP13 DRD-AcGFP construct of Table 10 (protein, Description of sequence: Construct Name: FKBP-279; Mutation(s): Q72R Q74R Q84E A117W V85R K120I) HCPIKSRKGDVLHMHYTGKLEDGTEFDSSLPRNRPFVFSLGTGERIKGWDQGLLGMCEGEKRKLVIPSELGYGERGWPPIIPGGATLVFEVELLKIER	–	31.33	31.33	3302	–	–
FKBP-280: FKBP13 DRD-AcGFP construct of Table 10 (protein, Description of sequence: Construct Name: FKBP-280; Mutation(s): Q72R Q74R Q84E A117W V85R K135Y K120I) HCPIKSRKGDVLHMHYTGKLEDGTEFDSSLPRNRPFVFSLGTGERIKGWDQGLLGMCEGEKRKLVIPSELGYGERGWPPIIPGGATLVFEVELLYIER	–	68.34	–	–	68.34	2468
FKBP-276: FKBP13 DRD-AcGFP construct of Table 10 (protein, Description of sequence: Construct Name: FKBP-276; Mutation(s): Q72R Q74R Q84E A117W V85R) HCPIKSRKGDVLHMHYTGKLEDGTEFDSSLPRNRPFVFSLGTGERIKGWDQGLLGMCEGEKRKLVIPSELGYGERGWPPKIPGGATLVFEVELLKIER	–	7.54	7.54	2859	–	–

Reference: US20250186614A1, “COMPACT DRUG RESPONSIVE DOMAINS FOR REGULATION OF FUNCTION/ABUNDANCE AND DELIVERY OF POLYPEPTIDE PAYLOADS” (OBSIDIAN THERAPEUTICS, INC., priority 2022, published 2025)
